# B1: HCoV-229E S-protein receptor-binding domain (RBD), residues 293–435, WT (Class I) (domain or fragment)
# chain: LPVYHKHTFIVLYVDFKPQSGGGKCFNCYPAGVNITLANFNETKGPLCVDTSHFTTKYVAVYANVGRWSASINTGNCPFSFGKVNNFVKFGSVCFSLKDIPGGCAMPIVANWAYSKYYTIGSLYVSWSDGDGITGVPQPVEGV
# B2: HCoV-229E S-protein S1 region, residues 17–560, WT (domain or fragment)
# chain: QTTNGLNTSYSVCNGCVGYSENVFAVESGGYIPSDFAFNNWFLLTNTSSVVDGVVRSFQPLLLNCLWSVSGLRFTTGFVYFNGTGRGDCKGFSSDVLSDVIRYNLNFEENLRRGTILFKTSYGVVVFYCTNNTLVSGDAHIPFGTVLGNFYCFVNTTIGNETTSAFVGALPKTVREFVISRTGHFYINGYRYFTLGNVEAVNFNVTTAETTDFCTVALASYADVLVNVSQTSIANIIYCNSVINRLRCDQLSFDVPDGFYSTSPIQSVELPVSIVSLPVYHKHTFIVLYVDFKPQSGGGKCFNCYPAGVNITLANFNETKGPLCVDTSHFTTKYVAVYANVGRWSASINTGNCPFSFGKVNNFVKFGSVCFSLKDIPGGCAMPIVANWAYSKYYTIGSLYVSWSDGDGITGVPQPVEGVSSFMNVTLDKCTKYNIYDVSGVGVIRVSNDTFLNGITYTSTSGNLLGFKDVTKGTIYSITPCNPPDQLVVYQQAVVGAMLSENFTSYGFSNVVELPKFFYASNGTYNCTDAVLTYSSFGVCADGS
# Tests used:
# [1] = molecular target: T1, soluble ectodomain of human aminopeptidase N (hAPN), residues 66–967, WT (human, UniProt P15144 66-967); experiment: SPR; conditions: both partners purified
# T1 sequence (P15144 66-967): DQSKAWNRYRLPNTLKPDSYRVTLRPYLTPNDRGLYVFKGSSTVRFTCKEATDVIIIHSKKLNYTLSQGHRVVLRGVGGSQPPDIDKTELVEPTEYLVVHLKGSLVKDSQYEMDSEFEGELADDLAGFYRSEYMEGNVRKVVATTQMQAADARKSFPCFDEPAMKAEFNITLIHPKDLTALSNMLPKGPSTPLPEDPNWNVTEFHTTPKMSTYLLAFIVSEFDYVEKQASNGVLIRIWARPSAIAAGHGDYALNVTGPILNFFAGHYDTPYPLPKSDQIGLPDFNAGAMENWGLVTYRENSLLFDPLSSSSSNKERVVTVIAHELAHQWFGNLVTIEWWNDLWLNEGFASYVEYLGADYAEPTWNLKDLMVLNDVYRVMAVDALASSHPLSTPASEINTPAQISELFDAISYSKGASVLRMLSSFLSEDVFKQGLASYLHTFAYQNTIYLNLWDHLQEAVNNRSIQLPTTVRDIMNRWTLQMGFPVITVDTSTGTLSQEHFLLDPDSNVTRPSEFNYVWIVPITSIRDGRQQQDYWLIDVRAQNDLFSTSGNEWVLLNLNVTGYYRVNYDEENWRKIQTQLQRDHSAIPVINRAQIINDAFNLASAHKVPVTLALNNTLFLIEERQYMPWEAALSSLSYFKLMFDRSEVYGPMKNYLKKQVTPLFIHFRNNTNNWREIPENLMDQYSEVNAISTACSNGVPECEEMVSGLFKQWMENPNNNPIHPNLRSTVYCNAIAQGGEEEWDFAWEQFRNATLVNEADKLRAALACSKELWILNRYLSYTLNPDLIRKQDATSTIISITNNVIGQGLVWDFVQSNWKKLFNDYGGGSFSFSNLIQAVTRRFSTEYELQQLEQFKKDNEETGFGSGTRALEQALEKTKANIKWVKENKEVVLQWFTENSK
# [2] = molecular target: T1, soluble ectodomain of human …; experiment: SPR; conditions: both partners purified; remark: listed apart in the source
Binder,Kd [1] [nM],koff [1] [s⁻¹],kon [1] [M⁻¹ s⁻¹],Kd [2] [nM],koff [2] [s⁻¹],kon [2] [M⁻¹ s⁻¹]
B1,434,0.16,360000,430,0.16,360000
B2,,,,1630,0.06,39000

# — paper PMC5701055 (Nature Communications, 2017)
